Source: US20200239555A1 (STATEN BIOTECHNOLOGY B V, published 2020)

Key:
[1] = target: T1, biotinylated native human ApoC3 (human, UniProt P02656 21-99, biotinylated (site not stated)); experiment: SPR, IgG1 over biotinylated ApoC3 on SA chip, pH 7.4
T1 construct: also called biotinylated human ApoC3
Description: (§1) Biotinylated native human ApoC3 was captured on a streptavidin coated SPR chip (GE Healthcare, cat. nr. BR100032) at pH 7.4, in accordance with the method provided by Biacore, by injection of 20 μl 10 μg/ml biotinylated native human ApoC3 reaching the surface density of approximately 500 RU. 60 μL of test antibody in 1-50 nM range diluted in HBS-EP buffer (GE, cat # BR-1008-26; 0.010 M HEPES, 0.150M NaCl, 3 mM EDTA, 0.05% (v/v) surfactant P20, pH 7.4) was injected and passed through the flow cells at a flow rate of 30 μl/min, followed by an off-rate wash at pH7.4 for 5 min. After the dissociation, the flow cell surfaces were regenerated by injecting 10 μl of 10 mM NaOH/1 M NaCl and 10 μl of 10 mM glycine at pH1.5. The assay was repeated at pH5.5 using the same general protocol, where the running and sample dilution buffer was replaced by a HBS-EP buffer supplemented with citrate buffer to 10 mM final concentration and pH adjusted to 5.5.
(§2) The resulting sensorgrams were analyzed using the BIAevaluation 4.1 software using Langmuir 1:1 binding model to derive binding kinetics. Data was zero adjusted and the reference cell sensorgrams were subtracted. Sensorgrams were double referenced to no-analyte blank assay. Fitted parameters were considered not applicable if off-rate values were below the equipment's detection limit of kd: 1×10⁻⁶ 1/s.

native human ApoC3 [2] = target: T2, native human ApoC3 (human, UniProt P02656 21-99); experiment: SPR, ApoC3 over captured IgG1, pH 5.5
T2 construct: also called nhuApoC3; native huApoC3
T2 sequence (P02656 21-99): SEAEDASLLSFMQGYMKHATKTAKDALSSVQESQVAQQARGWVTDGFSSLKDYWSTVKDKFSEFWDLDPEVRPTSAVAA
Description: (§3) An inverted SPR assay was designed in which a test antibody was captured on an SPR chip, human ApoC3 protein was injected, and binding of ApoC3 to the antibody was measured. […] The immobilization was performed in accordance with the method provided by Biacore/GE using the NHS/EDC kit (Biacore AB, Cat.nr. BR-1000-50): after activation of the chip, a solution of 30 μg/ml of anti-human Fcγ antibody in 10 mM acetate buffer with pH of 5.0 was prepared and injected until the surface density reached approximately 10000 RU. The analytical cycle comprised the following steps:
(§4) The resulting sensorgrams were analyzed using the BIAevaluation 4.1 software using Langmuir 1:1 binding model to derive binding kinetics. Data was zero adjusted, the reference cell sensorgrams were subtracted and the no analyte blank assay was used for double referencing the sensorgrams corresponding to the analyte injections. The dissociation and association phase sensorgrams were fitted separately for the 4 different concentration curves. Sensorgrams were excluded from the fitting if maximum RU values reached were below the detection limit of the equipment (<5 RU), Biacore 3000 (Biacore AB).

[3] = target: T1, biotinylated native human ApoC3; experiment: SPR, IgG1 over biotinylated ApoC3 on SA chip, pH 5.5
Description: as §1, §2

native human ApoC3 [4] = target: T2, native human ApoC3; experiment: SPR, ApoC3 over captured IgG1
Description: as §3, §4

native human ApoC3 [5] = target: T2, native human ApoC3; experiment: SPR, ApoC3 over captured IgG1, pH 7.4
Description: as §3, §4

[6] = target: T1, biotinylated native human ApoC3; experiment: SPR, IgG1 over biotinylated ApoC3 on SA chip
Description: as §1, §2

T1 sequence (P02656 21-99): as above

B1: mAb5 (antibody, IgG1, V domains shown)
VH: QLVESGGGLVQPGGSLRLSCAASGFTFGTYSMRWVRQAPGKGLEWVSSIHTEGGGTAYRDSVKGRFTISRDNAKNTLYLQMNSLRAEDTAVYYCVIAGYSDWGQGTLVTVSS
VL: DIVMTQSPLSLPVTPGESASISCKTSQGLVHSDGKTYFYWFLQKPGQSPQQLIYQVSNRASGVPDRFTGSGSGTDFTLKISRVKAEDAGVYYCAHGTYYPHTFGQGTRLEIK
notes: Produced as full length IgG1 (kappa) in ExpiCHO-S cells; also called humanized anti-ApoC3 antibody mAb5
Q: What does the source list for B1?
A: Ka [1]: 6.76e+09 M⁻¹; Kd [1]: 0.15 nM; koff [1]: 3.51e-05 s⁻¹; kon [1]: 237000 M⁻¹ s⁻¹; Ka (native human ApoC3 [2]): 2.45e+06 M⁻¹; koff (native human ApoC3 [2]): 0.0376 s⁻¹; kon (native human ApoC3 [2]): 92000 M⁻¹ s⁻¹; Ka [3]: 2.9e+09 M⁻¹; Kd [3]: 0.35 nM; koff [3]: 0.000145 s⁻¹; kon [3]: 419000 M⁻¹ s⁻¹; KD (nM) pH5.5/pH7.4 (native human ApoC3 [4]): 2.25; Ka (native human ApoC3 [5]): 5.51e+06 M⁻¹; koff (native human ApoC3 [5]): 0.00637 s⁻¹; kon (native human ApoC3 [5]): 35100 M⁻¹ s⁻¹; KD pH5.5/KD pH7.4 [6]: 2.33

B2: mAb15 (antibody, IgG1, V domains shown)
VH: QLVESGGGLVQPGGSLRLSCAASGFTFGTYSMRWVRQAPGKGLEWVSSIHTEAGGTAYRDSVKGRFTISRDNAKNTLYLQMNNLKAEDTAIYYCVIAGYSDWGQGTQVTVSS
VL: DIVMTQSPLSLPVTPGESASISCKTSQGLVHSGGKTYFYWFLQKPGQSPQQLIYQVSNRASGVPDRFTGSGSGTDFTLKISRVEAEDAGVYYCAQGTYYPHTFGSGTRLEIK
notes: Produced as full length IgG1 (kappa) in ExpiCHO-S cells; also called humanized anti-ApoC3 antibody mAb15
Q: What does the source list for B2?
A: Ka [1]: 1.86e+11 M⁻¹; koff [1]: 2.77e-06 s⁻¹; kon [1]: 516000 M⁻¹ s⁻¹; Ka (native human ApoC3 [2]): 1.16e+07 M⁻¹; Kd (native human ApoC3 [2]): 86 nM; koff (native human ApoC3 [2]): 0.0116 s⁻¹; kon (native human ApoC3 [2]): 134000 M⁻¹ s⁻¹; Ka [3]: 2.83e+09 M⁻¹; Kd [3]: 0.35 nM; koff [3]: 0.000249 s⁻¹; kon [3]: 705000 M⁻¹ s⁻¹; KD (nM) pH5.5/pH7.4 (native human ApoC3 [4]): 2.48; Ka (native human ApoC3 [5]): 2.88e+07 M⁻¹; Kd (native human ApoC3 [5]): 35 nM; koff (native human ApoC3 [5]): 0.00378 s⁻¹; kon (native human ApoC3 [5]): 109000 M⁻¹ s⁻¹

B3: mAb1 (antibody, IgG1, V domains shown)
VH: QLVESGGGLVQPGGSLRLSCAASGFTFGTYSMRWVRQVPGKGLEWVSSIHTEGGGTAYRDSVKGRFTISRDNAKNTLYLQMNSLRAEDTAIYYCVIAGYSDWGQGTLVTVSS
VL: DIVMTQSPLSLPVTPGESASISCKTSQGLVHSDGKTYFYWFLQKPGQSPQQLIYQVSNRASGVPDRFTGSGSGTDFTLKISRVKAEDAGVYYCAHGTYYPHTFGQGTRLEIK
notes: Produced as full length IgG1 (kappa) in ExpiCHO-S cells; also called humanized anti-ApoC3 antibody mAb1
Q: B3 was tested. Which Ka [1] did it give?
A: 2.2e+10 M⁻¹

Q: What about the Kd [1] of the same binder?
A: 0.05 nM

Q: And the koff [1]?
A: 1.18e-05 s⁻¹

Q: And the kon [1]?
A: 261000 M⁻¹ s⁻¹

Q: What about the Ka (native human ApoC3 [2]) of the same binder?
A: 3.95e+06 M⁻¹

Q: And the koff (native human ApoC3 [2])?
A: 0.0257 s⁻¹

Q: And the kon (native human ApoC3 [2])?
A: 101000 M⁻¹ s⁻¹

Q: And the Ka [3]?
A: 4.23e+09 M⁻¹

Q: What about the Kd [3] of the same binder?
A: 0.24 nM

Q: And the koff [3]?
A: 0.000104 s⁻¹

Q: What about the kon [3] of the same binder?
A: 440000 M⁻¹ s⁻¹

Q: What about the “KD (nM) pH5.5/pH7.4” value (native human ApoC3 [4]) of the same binder?
A: 3.42

Q: And the Ka (native human ApoC3 [5])?
A: 1.35e+07 M⁻¹

Q: What about the Kd (native human ApoC3 [5]) of the same binder?
A: 74 nM

Q: And the koff (native human ApoC3 [5])?
A: 0.00426 s⁻¹

Q: And the kon (native human ApoC3 [5])?
A: 57600 M⁻¹ s⁻¹

Q: And the “KD pH5.5/KD pH7.4” value [6]?
A: 5.22

B4: mAb4 (antibody, IgG1, V domains shown)
VH: QLVESGGGLVQPGGSLRLSCAASGFTFGTYSMRWVRQAPGKGLEWVSSIHTEGGGTAYRDSVKGRFTISRDNAKNTLYLQMNSLRAEDTAIYYCVIAGYSDWGQGTLVTVSS
VL: DIVMTQSPLSLPVTPGESASISCKTSQGLVHSDGKTYFYWFLQKPGQSPQQLIYQVSNRASGVPDRFSGSGSGTDFTLKISRVKAEDAGVYYCAHGTYYPHTFGQGTRLEIK
notes: Produced as full length IgG1 (kappa) in ExpiCHO-S cells; also called humanized anti-ApoC3 antibody mAb4
Q: Which results are given for B4?
A: Ka [1]: 2.15e+11 M⁻¹; koff [1]: 1.13e-06 s⁻¹; kon [1]: 243000 M⁻¹ s⁻¹; Ka (native human ApoC3 [2]): 2.32e+06 M⁻¹; koff (native human ApoC3 [2]): 0.0359 s⁻¹; kon (native human ApoC3 [2]): 83100 M⁻¹ s⁻¹; Ka [3]: 2.67e+09 M⁻¹; Kd [3]: 0.37 nM; koff [3]: 0.000156 s⁻¹; kon [3]: 416000 M⁻¹ s⁻¹; KD (nM) pH5.5/pH7.4 (native human ApoC3 [4]): 3.48; Ka (native human ApoC3 [5]): 8.06e+06 M⁻¹; koff (native human ApoC3 [5]): 0.00565 s⁻¹; kon (native human ApoC3 [5]): 45500 M⁻¹ s⁻¹

B5: mAb6 (antibody, IgG1, V domains shown)
VH: QLVESGGGLVQPGGSLRLSCAASGFTFGTYSMRWVRQAPGKGLEWVSSIHTEGGGTAYRDSVKGRFTISRDNAKNTLYLQMNSLRAEDTAVYYCVIAGYSDWGQGTLVTVSS
VL: DIVMTQSPLSLPVTPGESASISCKTSQGLVHSDGKTYFYWFLQKPGQSPQQLIYQVSNRASGVPDRFSGSGSGTDFTLKISRVKAEDAGVYYCAHGTYYPHTFGQGTRLEIK
notes: Produced as full length IgG1 (kappa) in ExpiCHO-S cells; also called humanized anti-ApoC3 antibody mAb6
Q: For B5, which Ka [1] is on record?
A: 1.67e+10 M⁻¹

Q: What about the Kd [1] of the same binder?
A: 0.06 nM

Q: And the koff [1]?
A: 1.33e-05 s⁻¹

Q: What about the kon [1] of the same binder?
A: 222000 M⁻¹ s⁻¹

Q: What about the Ka (native human ApoC3 [2]) of the same binder?
A: 1.16e+06 M⁻¹

Q: And the koff (native human ApoC3 [2])?
A: 0.0802 s⁻¹

Q: What about the kon (native human ApoC3 [2]) of the same binder?
A: 93100 M⁻¹ s⁻¹

Q: What about the Ka [3] of the same binder?
A: 2.88e+09 M⁻¹

Q: What about the Kd [3] of the same binder?
A: 0.35 nM

Q: And the koff [3]?
A: 0.000148 s⁻¹

Q: What about the kon [3] of the same binder?
A: 425000 M⁻¹ s⁻¹

Q: What about the “KD (nM) pH5.5/pH7.4” value (native human ApoC3 [4]) of the same binder?
A: 5.22

Q: And the Ka (native human ApoC3 [5])?
A: 6.08e+06 M⁻¹

Q: And the koff (native human ApoC3 [5])?
A: 0.00672 s⁻¹

Q: And the kon (native human ApoC3 [5])?
A: 40900 M⁻¹ s⁻¹

Q: And the “KD pH5.5/KD pH7.4” value [6]?
A: 5.79
